Reference: the RNAGym collection of RNA variant scans (doi:10.1073/pnas.2313332121)
Variants at the floor of the assay were thinned out.

B1: TPR 5TU (parent)
chain: GGAUCUUCUCGAUCUAACAAAAAAGACAAAUCUGCCACAAAGCUUGAGAGCAUCUUCGGAUGCAGAGGCGGCAGCCUUCGGUGGCGCGAUAGCGCCAACGUUCUCAACUAUGACACGCAAAACGCGUGCUCCGUUGAAUGGAGUUUAUCAUG

Variants of: B1
Assay: polymerase ribozyme fitness, log enrichment relative to wild type (log ratio); higher = more active; in vitro selection for triplet polymerase activity
Outline: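 Mutant libraries of both subunits of a heterodimeric triplet polymerase ribozyme were PCR-built, transcribed, and selected once in triplicate, with frozen incubation at −7 °C and capture of gel-excised extended constructs on streptavidin beads before RT-PCR. Illumina sequencing of input and output libraries was filtered to genotypes with ≥10 input reads and ≥1 read per output. Fitness is the logarithm of genotype enrichment over wild-type enrichment, using inverse-variance-weighted replicate averages. The logarithm is base 2.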

Row | Variant | polymerase ribozyme fitness (log ratio)
1 | U9A A23C C35G C75U G92U C95G U127A | ≤ -4.2
2 | G11A A29U U82G C87A G94C C96U A98G A122C G141A | ≤ -4.2
3 | A22U U148A | -2.76
4 | A20C A28U G48C G70A C87G A120G U135C | ≤ -4.2
5 | U33A U102C A107U C125A | ≤ -4.2
6 | U61A G86U | -2.99
7 | A16C C32U | -2.43
8 | C54U A138G | -3.19
9 | G70A U101C C103G C123U | ≤ -4.2
10 | C14G A23C C32U C96U | -4.1
11 | C10G G81C C87A U127C U144A U148A | ≤ -4.2
12 | C18G G42A U45A G58U A122C A142G | ≤ -4.2
13 | C54U A64U G83A C85A | ≤ -4.2
14 | U55C G74C | -3.64
15 | G59A C85U U134A | -3.92
16 | C57G A120U U144A | -1.24
17 | U44A U53A G58U G83U U102G A122U | ≤ -4.2
18 | A29C C95A G117U G126U G141C G143C | ≤ -4.2
19 | C10G A19G G34A A52C C54G | ≤ -4.2
20 | A16U A30C A47G G58A U111A | ≤ -4.2
21 | C8A U56A A66C G94A A98U | ≤ -4.2
22 | U6G A21U G94A U104G U127A | ≤ -4.2
23 | A3G U7G C38U A40G C54G C95U U145A | ≤ -4.2
24 | U13A A21C A73G C85G A89U | -2.11

Row | Variant | polymerase ribozyme fitness (log ratio)
25 | U6A C14A C32U G74A A138C | ≤ -4.2
26 | A52G G74C C96U U144G | ≤ -4.2
27 | C96G C105U C116G A119U C132U | -1.57
28 | U9G U53A | -3.81
29 | U15G A52C C96U U101G C129A | ≤ -4.2
30 | U55A C103G | -2.22
31 | U4C C85G C99U C125G | -3.5
32 | U56A C76A A119U A121C G126U | -1.11
33 | A21G A24G C51U U104G A113U | ≤ -4.2
34 | A40U C54U A97U C99U | -2.64
35 | A16C G83A G94A | -2.79
36 | U13A C36A G50A C79U C96A | ≤ -4.2
37 | G48C U53C C87U U145C | -2.69
38 | A19U A89U G136U | -3.55
39 | C32A C51A C54A G92A A97U U146C | ≤ -4.2
40 | C10G A30C G92U A107G U148C A150U | ≤ -4.2
41 | C51U G92U C99A A106G C123G C129U | -2.74
42 | U13C A19G U45G C93A A106U | -2.34
43 | A24U C93A G112A C114U C116G A119G | ≤ -4.2
44 | A20C A73C G81A U90C G92C U104G | ≤ -4.2
45 | A41G C96A | 0.0745
46 | C87A G133C U145C U146C | ≤ -4.2
47 | A17U A41U G86U A113C | ≤ -4.2
48 | G94A A110G | -2.35

Row | Variant | polymerase ribozyme fitness (log ratio)
49 | C8U A19C A40G C96U A142U | ≤ -4.2
50 | G84C C85A G92U C96A A97C C105U | -2.61
51 | C51A U134G U144A | -4.17
52 | G11A A28U C32U A47U C79A | ≤ -4.2
53 | U4G G50C A73G U102C | ≤ -4.2
54 | U4A A19U A24U C35A C57G A60C U101G | ≤ -4.2
55 | A28U A60C C87A C96U | ≤ -4.2
56 | U31A C32A G59A C93G A113U A150C | ≤ -4.2
57 | C93A A98G | -1.81
58 | U15C C93G | -2.27
59 | U4A G11A A26C A60G G84U G126U C149G | ≤ -4.2
60 | A3U G25C C38U C85A C116A C123U | -2.27
61 | A29C U33C U44A G80U C85U C93U G136U | ≤ -4.2
62 | G48U G84U | -2.01
63 | U44A C79G C85A U111G G133C | ≤ -4.2
64 | A29C U53A A73C G84C C103G A107U U134G | ≤ -4.2
65 | U6G A41U U45C | -2.17
66 | A40C U55A G59C C69U G84A | -2.39
67 | C38U C116G U148A | -3.89
68 | U56A C125G | -1.56
69 | A17U A19C C87G A89U | ≤ -4.2
70 | C8U G81C | -3.94
71 | A47U A60C C125U | -2.64
72 | A26C A49C | ≤ -4.2

Row | Variant | polymerase ribozyme fitness (log ratio)
73 | G50C C96U U134A | ≤ -4.2
74 | A26C G81A C87U G88C G124C G136U G140C | ≤ -4.2
75 | G50A C57U G74U C75G C87A A97C A150G | ≤ -4.2
76 | U6G C10G A21G G71A C76U C85A | ≤ -4.2
77 | A41C U55A G133A | ≤ -4.2
78 | A23U A26C G50A | ≤ -4.2
79 | U6A C27A C85G | ≤ -4.2
80 | A17C A26C C87U | -1.83
81 | A17C C95A C103G C108G | ≤ -4.2
82 | C69U C72U | -1.99
83 | G74A | -2.81
84 | A22U U61A C96U | -0.569
85 | C35A A41C G59C C87U G100C C105G A121C | ≤ -4.2
86 | G59U A120U A122U | -0.451
87 | A41U C103G G128U | ≤ -4.2
88 | A3C C85U C95U C114U G133C | ≤ -4.2
89 | A12G C87U | -0.54
90 | C5A A16U U53A C57G U90G C95A | ≤ -4.2
91 | A40C G100U U102G U135A | ≤ -4.2
92 | A60U C87G | ≤ -4.2
93 | U56C G68U A121G U148A | ≤ -4.2
94 | A52C A89U C96G G141U | -1.47
95 | C36A C79U | ≤ -4.2
96 | G58C G86U U104G | -1.93

Row | Variant | polymerase ribozyme fitness (log ratio)
97 | C85G U109G U144C | ≤ -4.2
98 | A41C C63G G92U | -0.619
99 | C35U A91G | -2.83
100 | A41C C93G | -3.5
101 | A16G C57A | -0.592
102 | G50C G58A C125A | -3.17
103 | U53A A89C G94A G141C | -3.63
104 | A60C | -0.597
105 | C35A G58U | -2.81
106 | C85A U127A | -3.68
107 | G88A U127G C129U | ≤ -4.2
108 | A12G A23U C85G A150G | ≤ -4.2
109 | A52G U53A A89C C93U | -2.02
110 | A37U G92C G133C | -3.52
111 | C57G G88A C96U U139C A142G | ≤ -4.2
112 | A12U A17G C35A U44A A47C A52U C95U G152U | ≤ -4.2
113 | U13G G48C G81A C96A | ≤ -4.2
114 | A39G U134G | -3.86
115 | C36A C75A C87G A106U C149G | ≤ -4.2
116 | A28U U53A G81C C95G A107U U139A | ≤ -4.2
117 | A23C C76U C87A | ≤ -4.2
118 | C5G A49U C57U C93G C103G U144C | ≤ -4.2
119 | G141C | -0.0848
120 | G48C U53A G74C C85U C99U A119G A120G | ≤ -4.2

Row | Variant | polymerase ribozyme fitness (log ratio)
121 | C32A A89C C95A | ≤ -4.2
122 | G48U U55A C96G A115U | -4.16
123 | A20U C57U A66U C95A U102C G141A U145G | ≤ -4.2
124 | G58U G62U C99U C118U U134C | ≤ -4.2
125 | A49C G86U C96G C123U U146G | ≤ -4.2
126 | A41C C93U A97C U102G | ≤ -4.2
127 | G50C C57G U77A G81A G86C C96A G143A | ≤ -4.2
128 | G124C A142U | -0.985
129 | G48A G83C | -1.78
130 | A49G G92C A115U | -3.24
131 | C18G C79G | -3.9
132 | A41C U55A G58C A98U | -0.108
133 | A21G G25A U56A C93U A119G A120C U146C | -3.11
134 | C18A A23G A28C C43U A52C U146A | ≤ -4.2
135 | U15C C75A C96G | ≤ -4.2
136 | G94A A106G C131G | ≤ -4.2
137 | A73U C123U | -0.392
138 | C27G C93U G141C | -3.68
139 | C14A A16U A49G G50A C57A A60G C95G U101C A110G | ≤ -4.2
140 | C5U A23U C32U G74U G83A C114U G136U C149U | ≤ -4.2
141 | U77A | ≤ -4.2
142 | A41U G68C A91U U102C | ≤ -4.2
143 | C8U C35A C72U C76U G88A G92U A121U | ≤ -4.2
144 | C8G C54G C85U A121U C131A G136U A137G | ≤ -4.2

Row | Variant | polymerase ribozyme fitness (log ratio)
145 | C51U C69U C96G | -3.06
146 | G50U C85A U144A U145C | -1.01
147 | A49C A73G A91G C108U A119C C125A | ≤ -4.2
148 | C5G A29C A47C G50A G86A U90A A91U G143C | ≤ -4.2
149 | A30U C54A C76A C87G G92A G143C | ≤ -4.2
150 | G84U A98G | -2.89
151 | A73U C105G | -3.79
152 | G74A A106C A142C | ≤ -4.2
153 | A16G A17G A19C G50A | 0.928
154 | G59C C87A U109A G133C | ≤ -4.2
155 | C14G C18U C38U U53C G58A U90G C93G A115C C118U A137U | ≤ -4.2
156 | C10U G50A U55G A91G G143C | ≤ -4.2
157 | C5G C93G | -2.51
158 | A19C A24G C36U C57A U111G A121G | ≤ -4.2
159 | C5G A12U U31A A41U C54U U56A G88A U127C A137C G141A | ≤ -4.2
160 | A73G U148A | -3.81
161 | A28C A49C C96U G133A U134G | -4.14
162 | A12G A20G A23U A89G C96U U111C G124C U130G G133C G140A | ≤ -4.2
163 | A40U U53C | 0.103
164 | U13C A16G A19C A28U C38U U55G A73C U77C C95G | ≤ -4.2
165 | U31A U55A A97U U145G | -0.219
166 | U4G C35U G83C G124U U146C | -2.43
167 | A30G C54U G80U A91C C103U | ≤ -4.2
